Measurements reported in patent publication US20230167182A1 (BIOSION, published 2023).

Experiments:
[1] = target: T1, human IL6R-Fc protein (human, biotin-labeled in the ELISAs (sites not given)); assay: benchmark blocking ELISA: antibody pre-incubated with biotin-labeled human IL6R-Fc, added to plate-coated Tocilizumab (competitor: Tocilizumab)
T1 construct: In house made; also called biotin-labeled human IL6R-Fc protein
Procedure: (§1) ELISA plates were washed once with wash buffer (PBS+0.05% v/v Tween-20, PBST) and then blocked with 200 μl/well blocking buffer (5% w/v non-fatty milk in PBST) overnight at 4° C.
The next day, the anti-IL6R antibodies of the disclosure or controls were diluted with biotin labeled human IL6R-Fc protein (SEQ ID NO: 43, 13.6 ng/ml in 2.5% w/v non-fatty milk in PBST), starting at 100 nM with a 5-fold serial dilution, and incubated at room temperature for 40 minutes. […] After incubation at 37° C. for 40 minutes, plates were washed 4 times using wash buffer. Then streptavidin conjugated HRP was added, and the plates were incubated for 40 minutes at 37° C. The plates were finally washed using wash buffer, and added with TMB. The reaction was stopped using 1M […], and the absorbance was read on a microplate reader using dual wavelength mode with 450 nm for TMB and 630 nm as the reference wavelength. The OD (450-630) values were plotted against antibody concentration. Data was analyzed using Graphpad Prism software and IC₅₀ values were reported.
Target sequence in this assay (chain, as listed by the source limits assumed): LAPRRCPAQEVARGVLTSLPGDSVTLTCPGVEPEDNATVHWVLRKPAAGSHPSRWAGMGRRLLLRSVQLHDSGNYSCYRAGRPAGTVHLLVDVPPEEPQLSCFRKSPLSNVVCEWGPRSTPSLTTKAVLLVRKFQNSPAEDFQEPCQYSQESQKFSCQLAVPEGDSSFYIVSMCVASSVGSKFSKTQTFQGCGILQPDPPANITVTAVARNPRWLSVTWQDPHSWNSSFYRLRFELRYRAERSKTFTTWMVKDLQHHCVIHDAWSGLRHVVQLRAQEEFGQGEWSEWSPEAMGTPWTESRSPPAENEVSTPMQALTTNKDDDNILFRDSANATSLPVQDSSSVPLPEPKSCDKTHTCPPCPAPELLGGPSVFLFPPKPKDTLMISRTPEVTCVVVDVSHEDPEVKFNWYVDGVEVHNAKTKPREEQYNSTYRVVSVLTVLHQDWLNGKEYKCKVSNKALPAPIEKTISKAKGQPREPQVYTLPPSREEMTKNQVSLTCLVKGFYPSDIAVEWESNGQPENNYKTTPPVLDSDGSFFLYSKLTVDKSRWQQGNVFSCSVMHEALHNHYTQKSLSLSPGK

[2] = target: T1, human IL6R-Fc protein; assay: ligand blocking ELISA: antibody pre-incubated with biotin-labeled human IL6R-Fc, added to plate-coated human IL6 (blocked ligand: human IL6)
Procedure: as §1
Target sequence in this assay (chain, as listed by the source limits assumed): as above
The next day, anti-IL6R antibodies or controls were diluted with biotin labeled human IL6R-Fc protein (prepared in house, SEQ ID NO: 43, 39.5 ng/ml in 2.5% w/v non-fatty milk in PBST), starting at 100 nM with a 4-fold serial dilution, and incubated at room temperature for 40 minutes. […] Plates were washed for 4 times using wash buffer, and added and incubated with 100 μl/well of streptavidin conjugated HRP (1:10000 dilution in PBST buffer, Jackson ImmunoResearch Laboratories, Inc., Cat #016-030-084) for 40 minutes at 37° C. Plates were washed again using wash buffer. Finally, TMB was added and the reaction was stopped using 1M H₂SO₄. The absorbance was read on a microplate reader using dual wavelength mode with 450 nm for TMB and 630 nm as the reference wavelength, and then the OD (450-630) values were plotted against antibody concentration. Data was analyzed using Graphpad Prism software and IC₅₀ values were reported.

[3] = target: T2, recombinant human IL6R-his (human, UniProt P08887 20-365); assay: SPR Biacore; antibody captured by anti-human IgG on CM5, human IL6R-his at 100 nM
T2 construct: In house made; the entry includes the C-terminal His tag; also called human IL6R-his protein
T2 sequence: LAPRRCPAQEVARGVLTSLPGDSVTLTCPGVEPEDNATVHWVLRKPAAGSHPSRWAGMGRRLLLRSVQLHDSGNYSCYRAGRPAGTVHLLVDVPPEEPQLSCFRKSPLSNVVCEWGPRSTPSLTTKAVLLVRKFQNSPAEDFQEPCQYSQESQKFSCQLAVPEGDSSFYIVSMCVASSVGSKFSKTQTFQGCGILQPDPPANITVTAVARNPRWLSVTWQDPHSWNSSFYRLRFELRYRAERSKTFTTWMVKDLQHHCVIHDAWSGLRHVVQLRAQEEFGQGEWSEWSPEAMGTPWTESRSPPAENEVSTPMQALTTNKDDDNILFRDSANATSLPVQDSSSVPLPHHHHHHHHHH
Procedure: (§2) Un-reacted moieties on the biosensor surface were blocked with ethanolamine. […] Then, serially diluted recombinant human IL6R-his (in house made, amino acid sequence set forth in SEQ ID NO: 44) or macaca IL6R-his protein (in house made, amino acid sequence set forth in SEQ ID NO: 45), starting at 100 nM with a 2-fold serial dilution in HBS-EP⁺ buffer (provided by Biacore), was flowed onto the chip at a flow rate of 30 μL/min. The antigen-antibody association kinetics was followed for 2 minutes and the dissociation kinetics was followed for 10 minutes. The association and dissociation curves were fit to a 1:1 Langmuir binding model using BIAcore evaluation software.
The recombinant human IL6R-his (amino acid sequence set forth in SEQ ID NO: 44) at the concentration of 100 nM instead of serially diluted recombinant human IL6R-his, was flowed onto the chip at a flow rate of 30 μL/min.

[4] = target: T2, recombinant human IL6R-his; assay: SPR Biacore; antibody at 10 ug/ml captured by anti-human IgG on CM5, human IL6R in flow
Procedure: as §2
Cell supernatants containing humanized antibodies were harvested after six days in shaking flasks and directly subjected to BIAcore test following the protocol described above with modifications.

[5] = target: T1, human IL6R-Fc protein; assay: ligand blocking ELISA: antibody pre-incubated with biotin-labeled human IL6R-Fc, added to plate-coated human IL6 (blocked ligand: human IL6); remark: listed apart in the source

B1: mouse anti-IL6R monoclonal antibody 1H7 (antibody, V domains shown)
VH: QVQLQQPGTELVKPGASVKLSCKASGYTFTNYWMHWVKQRPGQGLDWIGEINPTNGRTNYNENFKSKATLTVDKSSSTAYMQLSSLTSEDSAVYYCARLNTHYVFDSWGQGTTLTLSS
VL: EIVLTQSPTTLAASPGEKITFTCSVSSSISSNYLHWYQQKPGFSPKLLISRTSTLASGVPARFSGSGSGTSYSLTIGTMEAEDVATYYCQQGSGIPFTFGSGTKLELK
notes: Mouse hybridoma mAb
For B1, which IC50 [1] is on record?
The IC50 was 0.237 nM.

What about the IC50 [2] of the same binder?
The IC50 was 0.189 nM.

B2: Chimeric 1H7 (antibody, human IgG1, kappa, V domains shown)
VH: B1 VH
VL: EIVLTQSPTTLAASPGEKITFTCSVSSSISSNYLHWYQQKPGFSPKLLISRTSTLASGVPARFSGSGSGTSYSLTIGTMEAEDVATYYCQQGSGIPFTFGSGTKLELKR
notes: Mouse variable regions on human IgG1 / human kappa constant regions; also called chimeric antibody 1H7
With B2 as the binder, how does the Kd [3] read?
Its Kd is 0.4 nM.

And the koff [3]?
The koff was 5.21e-05 s⁻¹.

What about the kon [3] of the same binder?
Its kon is 130000 M⁻¹ s⁻¹.

And the Kd [4]?
The Kd was 0.604 nM.

What about the koff [4] of the same binder?
Its koff is 0.000123 s⁻¹.

And the kon [4]?
The kon was 204000 M⁻¹ s⁻¹.

What about the IC50 [1] of the same binder?
Its IC50 is 0.203 nM.

What about the IC50 [2] of the same binder?
The IC50 was 0.161 nM.

B3: Tocilizumab (antibody, human IgG1, kappa, V domains shown)
VH: QVQLQESGPGLVRPSQTLSLTCTVSGYSITSDHAWSWVRQPPGRGLEWIGYISYSGITTYNPSLKSRVTMLRDTSKNQFSLRLSSVTAADTAVYYCARSLARTTAMDYWGQGSLVTVSS
VL: DIQMTQSPSSLSASVGDRVTITCRASQDISSYLNWYQQKPGKAPKLLIYYTSRLHSGVPSRFSGSGSGTDFTFTISSLQPEDIATYYCQQGNTLPYTFGQGTKVEIKR
notes: In house made; also called benchmark; Actemra
For B3, which Kd [3] is on record?
The Kd was 3.26 nM.

And the Kd [4]?
The Kd was 3.81 nM.

And the IC50 [5]?
Its IC50 is 0.616 nM.

What about the IC50 [1] of the same binder?
Its IC50 is 0.862 nM.

And the IC50 [2]?
The IC50 was 1.03 nM.

B4: mouse anti-IL6R monoclonal antibody 1H9 (antibody, V domains shown)
VH: QVQLQQPGAELVKPGASVKLSCKASGYTFTSYWMHWVKLRPGQGLEWIGEINPTNGRTNYYEKFKNRATLTADKSSSTAYMQLSSLTFEDSAVYFCAKFHYSRWYFDVWGTGTTVTVSS
VL: DIVMTQSQKFMSTSVGDRVSITCKASQNVGTAVVWYQQKPGQSPKLLINPASNRYTGVPDRFTGSGSGTDFTLTISNMQSEDLADYFCQQYSSYPLTFGAGTKLELK
notes: Mouse hybridoma mAb
How did the IC50 [5] turn out when B4 was run?
The IC50 was 0.274 nM.

B5: humanized antibody hu1H7-V5 (antibody, human IgG1, kappa, V domains shown)
VH: QVQLVQSGAEVKKPGASVKVSCKASGYTFTNYWMHWVRQAPGQGLEWIGEINPTNGRTNYNENFKSRVTLTVDTSTSTVYMELSSLRSEDTAVYYCARLNTHYVFDSWGQGTLVTVSS
VL: EIVLTQSPGTLSLSPGERATLSCSVSSSISSNYLHWYQQKPGLSPRLLISRTSTLASGIPARFSGSGSGTEYTLTISRMQSEDFAVYYCQQGSGIPFTFGQGTKLEIKR
notes: Human IgG1 / kappa
B5 was tested. Which IC50 [1] did it give?
Its IC50 is 0.364 nM.

What about the IC50 [2] of the same binder?
Its IC50 is 0.223 nM.
